According to the supplement of paper PMC10567573:

B1: OAS1 (parent)
chain: LTVYAWERGSMKTHFNTAQGFRTV

Variants of: B1
Assay: protein stability index of a GFP-peptide fusion (GPS, HEK-293T) (PSI 1-6); higher = more stable
Conditions: c terminus: a fixed tail appended
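Note: lentivirally expressed fusions sorted by FACS into six bins by GFP to DsRed ratio, PSI derived from sequencing read proportions per bin multiplied by bin number.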

Protein stability index: each site, then its substitutions
G9: E 2.7, Y 2.93, F 3.19, H 1.61, R 2.02, P 3.81, D 2.6, T 2.55, M 2.85, K 1.8, N 2.48, Q 1.87, W 2.69
N16: H 2.69, F 3.37, R 1.53, L 2.23, G 3.06, V 3.22, Y 1.95, C 2.63, Q 2.83, A 3.67, M 3.47, D 1.66, W 3.85, S 3.5, T 2.45
T17: G 2.67, H 2.95, L 2.17, K 2.48, Q 4.87, E 1.61, N 1.72, Y 2.64, A 1.69, D 2.33, S 3.12
Y4: W 1.19, C 1.38, E 1.97, G 2.76, R 1.77, T 1.59, Q 1.86, M 1.51, H 1.66, K 2.16, A 2.01, D 2.09, S 1.83, I 3.51, P 2.31, L 2.55
K12: I 2.98, Q 2.43, N 2.66, H 2.87, F 1.8, P 5.14, D 2.29, L 2.72, G 1.54, Y 2.49, V 2.45, C 3.27, M 3.75, A 3.08, R 1.51
T2: M 1.69, P 1.93, W 2.55, A 2.03, G 1.25, L 2.7, Y 2.45, C 1.6, I 2.45, K 2.87, F 3.19, E 1.91, Q 1.86, N 1.84
T23: H 3.17, A 1.8, L 2.25, S 2.78, R 1.4, Q 1.9, M 3.15, F 2.29, I 2.69, K 2.39, P 2.61, Y 1.32, G 2.76
A18: N 2.63, H 3.09, S 1.2, V 3.42, Q 2.79, W 2.73, I 4.47, D 4.02, K 2.67, T 2.39, Y 4.24, R 2.84, C 1.88, M 2.79, F 2.56, G 2.64, E 1.54
T13: Y 3.56, D 2.74, I 2.75, M 3.37, S 2.01, G 2.33, R 1.64, H 1.83, L 2.99, C 1.13, E 2.06, K 1.51, F 3.1, P 2.06, Q 2.06
F21: P 2.33, R 1.82, C 2.35, L 2.67, G 1.4, W 2.21, S 2.42, V 1.82, I 2.09, Q 1.65, H 1.74, N 2.87, E 2.1, M 1.9, D 2.09, Y 2.9
G20: C 2.06, V 2.89, Q 2.14, E 3.23, Y 3.45, T 2.89, W 1.9, S 3.02, K 1.61, A 2.49, L 3.19, P 2.25, I 3, D 2.18
A5: H 1.69, Q 1.54, L 2.8, E 2.46, Y 3.25, M 2.06, P 2.19, V 2.34
